According to article PMC4082292, “Analysis of Y-P30/Dermcidin expression and properties of the Y-P30 peptide” (BMC Research Notes, 2014):

Legend:
[1] = Oligomerization of synthetic Y-P30 and resistance to denaturing agents (SDS-PAGE/immunoblot); format: physicochemical; conditions: immunoblot
Procedure: (§1) Y-P30 (aa 21–49) was synthesized as described previously [1]. For measuring stability of the peptide in vitro, Y-P30 was diluted in PBS (2 μg/μl) and incubated at room temperature over 24, 48 and 72 hours as well as 7 and 14 days. Additionally, the effect of different denaturing agents (urea, 8 M; dithiothreitol (DTT), 50 mM and 100 mM; iodoacetamide, 50 mM) was studied with incubation times of 2 and 12 hours. Thereafter, 4x sample loading dye (containing 5% beta-mercaptoethanol and 8% SDS) was added to 1x final concentration, all samples were boiled for 5 min at 95°C and subjected to SDS-PAGE with subsequent immunoblotting using a rabbit anti-Y-P30 antibody described previously [1, 2].

[2] = chemical stability; Y-P30 (aa 21-49) 2 μg/μl in PBS, room temperature, Eppendorf tube on bench shelf with regular light exposure; 24, 48, 72 h, 7 and 14 days; SDS-PAGE, immunoblot with rabbit anti-Y-P30; 13,5 μg per lane
Procedure: as §1

In the case of “Y-P30: synthetic survival promoting peptide, aa 21–49 of the human Y-P30/dermcidin precursor (DPEAASAPGSGNPCHEASAAQKENAGEDP; Survival-promoting peptide; UniProt P81605 21-49, looked up, fragment)”, the “apparent size of SDS-resistant multimer of the synthetic peptide” value ([1]; SDS-PAGE after boiling 5 min at 95°C in loading dye (5% beta-mercaptoethanol, 8% SDS at 4x), 10 μg per lane) is reported as 10–15 kDa, the “resistance of the 10-15 kDa oligomer species to denaturing agents” value ([1]; urea 8 M, DTT 50 mM and 100 mM, iodoacetamide 50 mM, incubation 2 h and 12 h (overnight), SDS-PAGE) is reported as “resistant to urea, DTT and iodoacetamide” and the “time for which the 15 kDA oligomer is stable” value [2] is reported as “at least 14 days”.
